Assay results reported in PMC4398645.

Target: T1, His6-Arc (Activity-regulated cytoskeleton-associated protein, full length) (mouse), Q9WV31
T1 chain: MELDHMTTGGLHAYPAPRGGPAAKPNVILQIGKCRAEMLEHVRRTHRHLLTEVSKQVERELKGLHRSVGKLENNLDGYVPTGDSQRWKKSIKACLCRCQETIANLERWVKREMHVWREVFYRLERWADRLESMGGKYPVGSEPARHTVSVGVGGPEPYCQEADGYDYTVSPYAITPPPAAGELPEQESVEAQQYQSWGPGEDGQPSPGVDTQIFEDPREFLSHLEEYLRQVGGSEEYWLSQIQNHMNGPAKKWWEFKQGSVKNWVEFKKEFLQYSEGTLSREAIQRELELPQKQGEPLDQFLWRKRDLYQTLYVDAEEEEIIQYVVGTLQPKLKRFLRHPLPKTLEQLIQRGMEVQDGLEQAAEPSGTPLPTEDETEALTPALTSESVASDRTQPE
Assay: SEC + other: sucrose density gradient centrifugation
Conditions: remark: other sources report otherwise

B1: His6-Arc (Activity-regulated cytoskeleton-associated protein, full length), Q9WV31 1-396 (natural protein)
chain: T1 chain
  stoichiometry N: 2
